Measured values as given in patent US20230257435A1, “Wound Healing Composition and Uses Thereof” (AGENCY FOR SCIENCE, TECHNOLOGY AND RESEARCH, priority 2020, published 2023).

Tests used:
HaCaT cells = assay: Collective migration on soft/stiff substrates (stencil barrier); assay type: cell-based, human
Protocol: Tissue culture plates were coated with Col-T-gel (Fischer Scientific) of stiffness ranging from 0.8 KPa (soft) to 30 KPa (stiff) as per manufacturer recommendations and allowed to solidify for 40 min at 37° C. inside tissue culture incubators. Some experiments were performed with cells seeded on the poly-hydrogel plates of defined stiffness: 0.2 kPa and 16 kPa soft and hard polyhydrogels, respectively (CytoSoft, Advanced Biomatrix, Inc.,). The determination of stiffness of silicone substrates were done by the manufacturer as per previously published protocols. For certain experiments, indicated amounts of sAgrin was incorporated into the 0.8 KPa collagen gels before gelation process. Upon gelation, trypsinized cells or excised mouse skin explants were plated onto the gels of different stiffness either alone or containing sAgrin. The cells/tissues were incubated under standard culture condition with 500 μl recommended culture medium for the indicated days. The crossbow shaped micropatterns with fibronectin coated islands were generated by microlithography on a 19.5×19.5 mm coverslide from Cytoo, Inc., France. The micropatterns had surface areas of 800μ^2 or 1600μ^2, respectively. Fifty thousand cells after initial siRNA treatment was placed on the micropatterns for 4-6 h before processing them for immunofluorescence. For some experiments, 10 μg/ml sAgrin was added on the slides 18 h prior to the addition of cells.
A confluent monolayer of control and Agrin depleted cells in a 6-well plate was subjected to a unidirectional scratch using a 20 μl pipette tip. This was followed by washing with 1×PBS at room temperature and incubation in complete culture media at 37° C. and 5% CO2 with or without sAgrin used as indicated. Phase contrast images of the wound area were taken periodically at the indicated time-points. For some wound-healing migration assays, keratinocytes were cultured on either soft or stiff substrates within a stencil barrier (Nalge Nunc., Inc) for 18 h. Upon removal of the barrier, the cells were allowed to migrate and imaged using an Axiovert 200 inverted microscope at indicated time-points.

human skin explants = assay: Human skin explant (EPIDERM-FT) punch wound healing; assay type: cell-based; details: explants treated with Agrin siRNA #1; 20 μg sAgrin in ointment on days 2, 4, 6
Excerpt: Human epidermal keratinocyte cell line HaCaT was maintained in Dulbecco's modified Eagle's Medium (DMEM) (Gibco) containing 10% fetal bovine serum (FBS) with Penicillin and Streptomycin (Gibco Cat #15140148) antibiotics. The human foreskin normal fibroblasts (BJ) obtained from ATCC (ATCC® CRL-2522™) were passaged in DMEM (Gibco) with antibiotics. Normal primary adult epidermal keratinocytes (HEK) purchased from CELL Applications, Inc., (Cat #C-12003) were maintained in manufacturer provided keratinocyte growth medium as recommended. Primary keratinocytes from C57BL mouse strain were purchased from CellBiologics (Cat #C57-6066K) and maintained as per manufacturer recommended Epithelial cell growth medium (Cat #M6621, CellBiologics). The mouse primary dermal fibroblasts were isolated from C57BL mouse strain (Cat #m-GFP-6067), and cultured in complete fibroblast medium (CellBiologics, Cat #M2267). […]
Human skin equivalents and mice skin tissues were harvested, embedded, and subjected to routine histology using Hematoxylin and Eosin. […] Quantification of collagen as a marker for ECM deposition was done by picrosirius red staining of paraffin embedded mouse skin tissues, as per previously published protocol.

B1: sAgrin: C-terminus recombinant Agrin fragment containing 8 amino acid 'Z8' insert and LG3 domain (SEQ ID NO: 7), His-tagged, expressed in E. coli (protein)
chain: DTLAFDGRTFVEYLNAVTESELANEIPVEKALQSNHFELSLRTEATQGLVLWSGKATERADYVALAIVDGHLQLSYNLGSQPVVLRSTVPVNTNRWLRVVAHREQREGSLQVGNEAPVTGSSPLGATQLDTDGALWLGGLPELPVGPALPKAYGTGFVGCLRDVVVGRHPLHLLEDAVTKPELRPCPTP
modifications: His tag
With B1 the “collective migration rates on compliant substrates” value (HaCaT cells; 0.8 kPa, sAgrin 10 μg/ml, 24 h) was “significantly promoted migration rates that was comparable to those in stiff ECM alone”, the “K17 expressing leader cells on soft substrates” value (HaCaT cells; soft substrate, sAgrin 10 μg/ml, 4 h) was “stimulated collective migration by activating K17 expressing leader cells” and the “fraction of K17 expressing leader cells in Agrin depleted cells” value (HaCaT cells; stiff ECM with sAgrin, 4 h) was “significantly restored”. For the same molecule, the “migratory potential of Agrin depleted keratinocytes on stiff substrates” value (HaCaT cells; stiff matrix with 10 μg/ml sAgrin) was “significantly rescued”, the “K17 expressing migrating cells after MMP12 knockdown” value (HaCaT cells; stiff substrates (30 kPa), 20 μg/ml sAgrin) was “not restored by the nourishment of sAgrin” and the “wound healing and migration of keratinocytes (rescue)” value (human skin explants) was “significantly rescued the wound healing and the migration of keratinocytes”.
